One protein from publication PMC4531439, “New insights into the molecular mechanism of the Rab GTPase Sec4p activation” (BMC Structural Biology, 2015) can be followed below.

The data set deals with the molecule itself. As to the kind of experiment: cell-based or functional assay.

B1: Sec2p (51–142) (domain or fragment, UniProt P17065 51-142, looked up)
chain: NYNQLKEDYNTLKRELSDRDDEVKRLREDIAKENELRTKAEEEADKLNKEVEDLTASLFDEANNMVADARKEKYAIEILNKRLTEQLREKDT
With B1, the “mantGDP dissociation rate from Sec4p(19-187) stimulated by 500 nM Sec2p(51-142), compared with Sec2p(1-160)” value is 20 fold slower than Sec2p 1-160.
